These are literature values, as cited in paper PMC5493979.

This data set addresses LRAT (UniProt O95237).
Chain of UniProt O95237 (O95237 whole entry): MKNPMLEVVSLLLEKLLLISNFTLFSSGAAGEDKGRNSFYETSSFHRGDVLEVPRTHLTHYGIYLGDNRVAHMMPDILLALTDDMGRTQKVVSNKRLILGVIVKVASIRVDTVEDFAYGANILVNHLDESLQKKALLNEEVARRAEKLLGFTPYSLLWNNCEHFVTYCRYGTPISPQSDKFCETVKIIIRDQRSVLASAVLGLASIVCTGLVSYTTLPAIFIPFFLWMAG

On to apo-CRBP1 (from UniProt P09455), for which the Ki was 0.2 µM.
